# Biological target: Mycobacterium tuberculosis DnaK, wild type, full length (Mycobacterium tuberculosis, UniProt P9WMJ9 1-625)
# Test: ITC
binder,measurement,value
"Mycobacterium tuberculosis GrpE, wild type, full length (natural protein) MTDGNQKPDGNSGEQVTVTDKRRIDPETGEVRHVPPGDMPGGTAAADAAHTEDKVAELTADLQRVQADFANYRKRALRDQQAAADRAKASVVSQLLGVLDDLERARKHGDLESGPLKSVADKLDSALTGLGLVAFGAEGEDFDPVLHEAVQHEGDGGQGSKPVIGTVMRQGYQLGEQVLRHALVGVVDTVVVDAAELESVDDGTAVADTAENDQADQGNSADTSGEQAESEPSGS",Kd,360 nM
